Reference: publication PMC11829961 (Nature Communications, 2025)

Key:
IL-36R (20-220)-His6-Avi = IL-36R (20-220)-His6-Avi (human, UniProt Q9HB29, biotin on the Avi tag (in vitro, BirA)); assay: crystal structure
IL-36R (20-333)-His6-Avi = target: T1, IL-36R (20-333)-His6-Avi (human, UniProt Q9HB29 20-333, biotin on the Avi tag (in vitro, BirA)); assay: SPR
T1 sequence (looked up): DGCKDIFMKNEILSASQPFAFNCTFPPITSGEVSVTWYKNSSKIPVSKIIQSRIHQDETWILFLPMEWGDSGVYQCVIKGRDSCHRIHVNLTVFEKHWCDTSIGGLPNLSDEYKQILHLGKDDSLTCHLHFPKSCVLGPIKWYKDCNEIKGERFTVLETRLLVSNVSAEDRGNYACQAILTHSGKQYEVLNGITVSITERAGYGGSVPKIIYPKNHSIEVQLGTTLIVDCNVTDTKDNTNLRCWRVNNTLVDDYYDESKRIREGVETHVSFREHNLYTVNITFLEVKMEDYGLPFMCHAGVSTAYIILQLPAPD

[1] = patients who had received at least one dose; cited from earlier work

B1: spesolimab-Fab (Fab, V domains shown)
VH: QVQLVQSGAEVKKPGASVKVSCKASGYSFTSSWIHWVKQAPGQGLEWMGEINPGNVRTNYNENFRNKVTMTVDTSISTAYMELSRLRSDDTAVYYCTVVFYGEPYFPYWGQGTLVTVSS
VL: QIVLTQSPGTLSLSPGERATMTCTASSSVSSSYFHWYQQKPGQAPRLWIYRTSRLASGVPDRFSGSGSGTDFTLTISRLEPEDAATYYCHQFHRSPLTFGAGTKLEIK
B1: binds (IL-36R (20-220)-His6-Avi).

B2: Human IL-36α (aa 6–158) (ligand, UniProt Q9UHA7 6-158, looked up)
chain: KIDTPQQGSIQDINHRVWVLQDQTLIAVPRKDRMSPVTIALISCRHVETLEKDRGNPIYLGLNGLNLCLMCAKVGDQPTLQLKEKDIMDLYNQPEPVKSFLFYHSQSGRNSTFESVAFPGWFIAVSSEGGCPLILTQELGKANTTDFGLTMLF
Molecule B2 has a Kd (IL-36R (20-333)-His6-Avi) of about 600 nM.

B3: spesolimab: IL-36R blocking antibody, positive control; approved for flares of GPP (antibody, chains of the INN, looked up, V domains shown)
VH: B1 VH
VL: B1 VL
In the case of B3, the “anti-drug antibodies observed, patients” value [1] is listed as 23 out of 50.
